Values joined by “and” are separate entries in the source; they are usually repeats but may differ in a detail not shown here. Equal entries are not always repeated.

Test [1] has as its target RASA1 C-terminal SH2 domain (human). The test can be described thus: peptide or protein array; SH2/PTB proteins spotted on aldehyde slides, rhodamine peptide titrated in buffer B (20 mM HEPES, 100 mM KCl, 0.1% Tween-20, 5 mM DTT, pH 7.8), 1 h at room temperature; replicate assays.
The target in test [2] is SH2D3A SH2 domain (human) (UniProt Q9BRG2). Described as above.
Sequence of SH2D3A SH2 domain (human) (Q9BRG2 15-114): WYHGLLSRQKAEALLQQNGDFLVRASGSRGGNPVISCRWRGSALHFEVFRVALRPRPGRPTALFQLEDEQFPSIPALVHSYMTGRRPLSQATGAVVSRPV
The target in test [3] is SH2D1A SH2 domain (human) (UniProt O60880). The test is described as above.
Sequence of SH2D1A SH2 domain (human) (O60880 6-104): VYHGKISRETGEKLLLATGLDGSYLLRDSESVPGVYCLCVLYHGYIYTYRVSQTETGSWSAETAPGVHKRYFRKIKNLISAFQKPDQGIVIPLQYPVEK
For test [4], the target named is RASA1 N-terminal SH2 domain (human) (UniProt P20936). Described as above.
Sequence of RASA1 N-terminal SH2 domain (human) (P20936 whole entry, the tested form may be a part): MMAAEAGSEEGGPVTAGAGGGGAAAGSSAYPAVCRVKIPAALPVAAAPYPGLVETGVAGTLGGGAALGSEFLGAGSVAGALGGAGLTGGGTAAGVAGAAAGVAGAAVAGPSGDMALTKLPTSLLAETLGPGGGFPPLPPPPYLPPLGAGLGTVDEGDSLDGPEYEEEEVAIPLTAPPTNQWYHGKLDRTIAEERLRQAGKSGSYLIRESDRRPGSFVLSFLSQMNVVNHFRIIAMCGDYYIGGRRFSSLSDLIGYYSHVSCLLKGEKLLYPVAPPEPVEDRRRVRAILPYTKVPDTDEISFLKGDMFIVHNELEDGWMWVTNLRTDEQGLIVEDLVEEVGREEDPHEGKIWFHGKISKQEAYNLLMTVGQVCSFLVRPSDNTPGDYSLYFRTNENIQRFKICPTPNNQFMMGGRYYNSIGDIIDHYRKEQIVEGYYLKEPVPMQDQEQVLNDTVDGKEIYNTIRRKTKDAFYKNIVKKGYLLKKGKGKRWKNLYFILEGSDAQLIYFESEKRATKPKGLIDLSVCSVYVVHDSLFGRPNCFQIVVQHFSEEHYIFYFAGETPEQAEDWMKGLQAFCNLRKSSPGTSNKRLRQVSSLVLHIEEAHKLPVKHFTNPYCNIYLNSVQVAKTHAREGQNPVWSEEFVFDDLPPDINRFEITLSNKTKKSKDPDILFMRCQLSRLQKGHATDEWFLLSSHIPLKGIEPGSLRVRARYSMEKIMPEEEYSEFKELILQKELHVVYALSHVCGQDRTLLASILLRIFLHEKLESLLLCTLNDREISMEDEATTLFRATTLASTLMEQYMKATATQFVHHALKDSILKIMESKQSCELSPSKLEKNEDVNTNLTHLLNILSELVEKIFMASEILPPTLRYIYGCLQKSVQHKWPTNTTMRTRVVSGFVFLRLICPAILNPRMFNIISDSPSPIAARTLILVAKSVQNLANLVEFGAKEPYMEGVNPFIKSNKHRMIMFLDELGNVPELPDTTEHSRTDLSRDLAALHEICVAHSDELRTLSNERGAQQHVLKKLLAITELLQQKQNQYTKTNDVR
The next test deals with YES1 SH2 domain (human) (UniProt P07947). The test is described as above.
Sequence of YES1 SH2 domain (human) (P07947 158-255): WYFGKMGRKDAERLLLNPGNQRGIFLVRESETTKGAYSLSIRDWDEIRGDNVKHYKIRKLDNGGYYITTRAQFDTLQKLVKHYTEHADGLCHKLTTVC
Another test concerns the target LCK SH2 domain (human) (UniProt P06239). Described as above.
For test [5], the target named is SH2D1B SH2 domain (human) (UniProt O14796). Described as above.
Sequence of SH2D1B SH2 domain (human) (O14796 5-101): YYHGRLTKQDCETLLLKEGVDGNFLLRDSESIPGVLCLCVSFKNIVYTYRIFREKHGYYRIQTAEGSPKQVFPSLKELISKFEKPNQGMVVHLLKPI
The target in test [6] is SH2D3C SH2 domain (human) (UniProt Q8N5H7). Described as above.
Sequence of SH2D3C SH2 domain (human) (Q8N5H7 220-319): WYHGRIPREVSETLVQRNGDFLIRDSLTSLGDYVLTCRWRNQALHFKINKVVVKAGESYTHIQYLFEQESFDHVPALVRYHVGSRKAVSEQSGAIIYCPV
Another test has as its target GRAP2 SH2 domain (human) (UniProt O75791). The test is described as above.
In the next test the target is ABL2 SH2 domain (human) (UniProt P42684). Described as above.
Sequence of ABL2 SH2 domain (human) (P42684 173-263): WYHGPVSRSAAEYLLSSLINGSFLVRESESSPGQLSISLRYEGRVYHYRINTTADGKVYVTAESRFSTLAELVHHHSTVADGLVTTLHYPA
Another test deals with HSH2D SH2 domain (human) (UniProt Q96JZ2). Described as above.
Sequence of HSH2D SH2 domain (human) (Q96JZ2 34-125): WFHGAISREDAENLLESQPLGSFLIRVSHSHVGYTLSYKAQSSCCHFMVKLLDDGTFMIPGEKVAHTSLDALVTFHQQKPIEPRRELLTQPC
A further test concerns the target SHF SH2 domain (human) (UniProt Q7M4L6). The description is as above.
Test [7] addresses PIK3R3 tandem SH2 domains (human). The test is described as above.
Test [8] deals with PTPN11 tandem SH2 domains (human). Described as above.
The next test concerns the target NCK1 SH2 domain (human) (UniProt P16333). Described as above.
The target in the next test is GRB10 SH2 domain (human) (UniProt Q13322). Described as above.
Sequence of GRB10 SH2 domain (human) (Q13322 493-574): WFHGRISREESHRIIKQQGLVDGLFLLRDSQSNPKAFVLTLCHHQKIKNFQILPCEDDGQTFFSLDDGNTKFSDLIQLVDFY
A further test addresses SH2B3 SH2 domain (human) (UniProt Q9UQQ2). The description is as above.
A further test has as its target SHC3 SH2 domain (human) (UniProt Q92529). The test is described as above.
Test [9] addresses SYK N-terminal SH2 domain (human). Described as above.
Test [10] has as its target PIK3R1 C-terminal SH2 domain (human). The description is as above.
In test [11] the target is ZAP70 C-terminal SH2 domain (human) (UniProt P43403). The test is described as above.
Sequence of ZAP70 C-terminal SH2 domain (human) (P43403 whole entry, the tested form may be a part): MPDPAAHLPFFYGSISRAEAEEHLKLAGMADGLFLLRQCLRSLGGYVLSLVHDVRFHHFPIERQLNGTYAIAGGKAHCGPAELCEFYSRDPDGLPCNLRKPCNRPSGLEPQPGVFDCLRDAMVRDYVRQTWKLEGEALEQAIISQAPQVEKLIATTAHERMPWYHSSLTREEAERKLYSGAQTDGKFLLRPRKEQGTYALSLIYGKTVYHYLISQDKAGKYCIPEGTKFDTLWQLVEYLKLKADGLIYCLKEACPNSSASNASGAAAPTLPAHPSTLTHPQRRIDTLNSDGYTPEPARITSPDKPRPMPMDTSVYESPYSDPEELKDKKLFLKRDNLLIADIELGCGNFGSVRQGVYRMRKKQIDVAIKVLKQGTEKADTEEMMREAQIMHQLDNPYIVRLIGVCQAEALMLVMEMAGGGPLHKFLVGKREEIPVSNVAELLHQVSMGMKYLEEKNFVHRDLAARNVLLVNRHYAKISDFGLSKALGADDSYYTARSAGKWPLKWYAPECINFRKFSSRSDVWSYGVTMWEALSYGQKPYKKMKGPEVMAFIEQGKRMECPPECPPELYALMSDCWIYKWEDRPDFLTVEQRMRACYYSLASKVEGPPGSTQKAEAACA
The target of a further test is BLK SH2 domain (human) (UniProt P51451). Described as above.
Sequence of BLK SH2 domain (human) (P51451 124-220): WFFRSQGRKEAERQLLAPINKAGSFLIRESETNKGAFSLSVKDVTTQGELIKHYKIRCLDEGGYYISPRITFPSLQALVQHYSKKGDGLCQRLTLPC
Test [12] addresses PLCG2 tandem SH2 domains (human). Described as above.
The target of test [13] is PIK3R2 tandem SH2 domains (human) (UniProt O00459). The description is as above.
Sequence of PIK3R2 tandem SH2 domains (human) (O00459 whole entry, the tested form may be a part): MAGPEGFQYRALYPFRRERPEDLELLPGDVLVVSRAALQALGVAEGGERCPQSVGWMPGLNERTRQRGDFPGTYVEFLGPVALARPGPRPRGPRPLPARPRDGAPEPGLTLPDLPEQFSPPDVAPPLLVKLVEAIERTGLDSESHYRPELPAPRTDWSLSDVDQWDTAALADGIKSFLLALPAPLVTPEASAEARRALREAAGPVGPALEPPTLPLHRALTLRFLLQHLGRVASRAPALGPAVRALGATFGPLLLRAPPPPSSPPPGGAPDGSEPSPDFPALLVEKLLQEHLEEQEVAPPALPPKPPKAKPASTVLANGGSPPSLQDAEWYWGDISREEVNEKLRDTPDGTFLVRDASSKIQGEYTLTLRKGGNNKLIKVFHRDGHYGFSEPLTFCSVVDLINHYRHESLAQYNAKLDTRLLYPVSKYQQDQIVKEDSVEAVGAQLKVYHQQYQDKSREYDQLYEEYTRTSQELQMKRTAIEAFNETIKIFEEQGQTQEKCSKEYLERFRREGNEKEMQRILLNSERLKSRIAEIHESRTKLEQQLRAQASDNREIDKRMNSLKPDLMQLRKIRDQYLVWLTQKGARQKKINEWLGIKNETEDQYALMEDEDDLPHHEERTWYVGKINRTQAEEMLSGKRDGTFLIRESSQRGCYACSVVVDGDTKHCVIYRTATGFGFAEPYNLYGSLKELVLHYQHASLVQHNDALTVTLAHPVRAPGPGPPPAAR
Another test deals with HCK SH2 domain (human) (UniProt P08631). The test is described as above.
Sequence of HCK SH2 domain (human) (P08631 144-241): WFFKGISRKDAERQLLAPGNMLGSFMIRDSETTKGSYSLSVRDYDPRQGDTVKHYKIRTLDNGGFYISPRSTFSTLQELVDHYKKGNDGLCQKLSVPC
The next test has as its target BLNK SH2 domain (human) (UniProt Q8WV28). The description is as above.
In a further test the target is CRKL SH2 domain (human) (UniProt P46109). The description is as above.
Sequence of CRKL SH2 domain (human) (P46109 14-102): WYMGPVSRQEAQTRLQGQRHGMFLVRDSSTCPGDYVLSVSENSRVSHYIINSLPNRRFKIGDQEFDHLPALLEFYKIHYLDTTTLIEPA
Another test concerns the target TNS4 SH2 domain (human) (UniProt Q8IZW8). The description is as above.
The target in a further test is BMX SH2 domain (human) (UniProt P51813). The description is as above.
Sequence of BMX SH2 domain (human) (P51813 296-392): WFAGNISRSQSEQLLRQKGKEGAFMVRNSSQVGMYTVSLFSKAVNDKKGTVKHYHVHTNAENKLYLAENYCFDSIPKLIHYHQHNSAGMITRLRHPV
Test [14] concerns the target SH3BP2 SH2 domain (human) (UniProt P78314). The description is as above.
The target of another test is NCK2 SH2 domain (human) (UniProt O43639). The description is as above.
Sequence of NCK2 SH2 domain (human) (O43639 285-380): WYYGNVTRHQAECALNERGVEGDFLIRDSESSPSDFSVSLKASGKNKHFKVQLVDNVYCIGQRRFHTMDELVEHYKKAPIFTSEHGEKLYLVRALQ
In another test the target is SRC SH2 domain (human) (UniProt P12931). Described as above.
In another test the target is ABL1 SH2 domain (human) (UniProt P00519). The test is described as above.
Sequence of ABL1 SH2 domain (human) (P00519 127-217): as the sequence (P42684 173-263) above, with S9N, L18G, L35R, T53A, A54S, V58L, T61S, A62S, S67N, V84I counted along it
A further test has as its target CRK SH2 domain (human) (UniProt P46108). The test is described as above.
The target of test [15] is SYK tandem SH2 domains (human). The test is described as above.
Test [16] addresses ErbB3 Y789 non-phosphorylated peptide, rhodamine-labelled (human). Briefly: fluorescence polarisation; saturation binding in solution: rhodamine peptide fixed at 10 nM, protein titrated 0.002-10 uM, 20 min at room temperature; assay buffer 20 mM HEPES, 100 mM KCl, 0.1% Tween-20, 5 mM DTT, pH 7.8; apparent KD.

Sequence of SHF SH2 domain (human) (Q7M4L6 323-418): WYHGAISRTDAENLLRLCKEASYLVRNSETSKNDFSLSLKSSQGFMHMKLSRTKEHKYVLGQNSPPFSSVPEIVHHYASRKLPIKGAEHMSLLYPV
Sequence of SH3BP2 SH2 domain (human) (P78314 457-555): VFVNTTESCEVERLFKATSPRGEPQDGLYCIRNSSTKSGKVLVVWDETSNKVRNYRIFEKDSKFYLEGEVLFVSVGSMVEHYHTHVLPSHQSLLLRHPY
Sequence of LCK SH2 domain (human) (P06239 127-224): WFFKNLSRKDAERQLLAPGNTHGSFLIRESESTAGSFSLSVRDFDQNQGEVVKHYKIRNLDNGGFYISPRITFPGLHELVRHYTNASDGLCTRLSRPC
Sequence of SH2B3 SH2 domain (human) (Q9UQQ2 364-462): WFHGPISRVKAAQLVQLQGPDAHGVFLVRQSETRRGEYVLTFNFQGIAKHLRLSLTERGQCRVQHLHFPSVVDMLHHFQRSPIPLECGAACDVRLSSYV
Sequence of CRK SH2 domain (human) (P46108 13-118): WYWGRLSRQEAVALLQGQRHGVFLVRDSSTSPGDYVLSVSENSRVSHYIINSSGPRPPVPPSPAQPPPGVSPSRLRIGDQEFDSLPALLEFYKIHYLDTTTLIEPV
Sequence of GRAP2 SH2 domain (human) (O75791 58-149): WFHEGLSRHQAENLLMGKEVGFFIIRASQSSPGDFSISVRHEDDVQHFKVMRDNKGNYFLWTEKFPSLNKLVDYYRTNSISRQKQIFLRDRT
Sequence of BLNK SH2 domain (human) (Q8WV28 346-453): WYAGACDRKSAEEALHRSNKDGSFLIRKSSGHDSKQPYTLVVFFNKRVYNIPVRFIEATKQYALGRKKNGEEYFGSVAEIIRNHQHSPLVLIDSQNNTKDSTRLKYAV
Sequence of SHC3 SH2 domain (human) (Q92529 499-590): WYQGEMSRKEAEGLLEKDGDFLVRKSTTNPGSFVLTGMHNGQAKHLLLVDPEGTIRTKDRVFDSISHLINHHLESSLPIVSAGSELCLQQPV

Take “ErbB4 pY733 phosphopeptide (18-mer), rhodamine-labelled, for protein microarrays”: the Kd was 10400 nM in test [1]; 603 nM and 790 nM and 912 nM in test [2]; 823 nM and 1610 nM and 1680 nM in test [3]; 685 nM in test [4]; 1180 nM and 1170 nM and 421 nM with YES1 SH2 domain (human); 1240 nM in the test with LCK SH2 domain (human). The Kd was 404 nM and 1280 nM and 1340 nM in test [5]; 9360 nM in test [6]; 852 nM with GRAP2 SH2 domain (human); 1370 nM and 1730 nM and 268 nM in the test with ABL2 SH2 domain (human); 2210 nM in the test with HSH2D SH2 domain (human); 2700 nM and 8500 nM in the test with SHF SH2 domain (human). In addition, the Kd in test [7] was 7820 nM and 10500 nM; in test [8], 177 nM; with NCK1 SH2 domain (human), 724 nM; with GRB10 SH2 domain (human) it was 1270 nM; with SH2B3 SH2 domain (human), 1180 nM; in the test with SHC3 SH2 domain (human) it was 7660 nM. Further, the Kd in [9] was 3040 nM and 3450 nM and 803 nM; in [10], 438 nM; in test [11], 1530 nM and 1520 nM and 404 nM.
With “ErbB4 pY1221 phosphopeptide (18-mer), rhodamine-labelled, for protein microarrays”, the Kd in the test with BLK SH2 domain (human) is 1150 nM and 1160 nM and 583 nM; in test [12], 1250 nM and 1380 nM; in test [13], 1340 nM; in test [2], 605 nM; in [3] it was 766 nM; in the test with HCK SH2 domain (human), 70 nM. In addition, the Kd is 4000 nM in the test with BLNK SH2 domain (human); 1320 nM and 818 nM with YES1 SH2 domain (human); 107 nM with CRKL SH2 domain (human); 323 nM with TNS4 SH2 domain (human); 419 nM with BMX SH2 domain (human); 2360 nM and 10900 nM and 1240 nM in [14]. Further, the Kd is 906 nM and 283 nM with ABL2 SH2 domain (human); 994 nM with HSH2D SH2 domain (human); 1190 nM in the test with SHF SH2 domain (human); 211 nM with NCK2 SH2 domain (human); 443 nM with SRC SH2 domain (human); 250 nM with ABL1 SH2 domain (human). Besides, the Kd is 544 nM in test [7]; 234 nM with GRB10 SH2 domain (human); 15600 nM and 9490 nM in test [9]; 64500 nM in the test with CRK SH2 domain (human); 791 nM in [11]; 811 nM and 1290 nM and 285 nM in test [15].
Turning to “PIK3R1 tandem SH2 domains (from UniProt P27986 1-724) (domain or fragment)”, the Kd in [16] came out at 1590 nM.

The record behind these values is article PMC3433420.
